# Results: publication PMC2801813 (Biochemistry, 2009)
# Substitutions are numbered along the chain they refer to. Numbers in names are those of the source. Where “and” joins values, the source holds several entries; their conditions need not be identical. Equal values may be shown once.
# B1: OxDC (oxalate decarboxylase) (Bacillus subtilis subsp. subtilis str. 168; E101Q/E280Q) (protein)
# chain: MKKQNDIPQPIRGDKGATVKIPRNIERDRQNPDMLVPPETDHGTVSNMKFSFSDTHNRLEKGGYAREVTVRELPISENLASVNMRLKPGAIRELHWHKEAQWAYMIYGSARVTIVDEKGRSFIDDVGEGDLWYFPSGLPHSIQALEEGAEFLLVFDDGSFSENSTFQLTDWLAHTPKEVIAANFGVTKEEISNLPGKEKYIFENQLPGSLKDDIVEGPNGEVPYPFTYRLLEQEPIESEGGKVYIADSTNFKVSKTIASALVTVEPGAMRELHWHPNTHQWQYYISGKARMTVFASDGHARTFNYQAGDVGYVPFAMGHYVENIGDEPLVFLEIFKDDHYADVSLNQWLAMLPETFVQAHLDLGKDFTDVLSKEKHPVVKKKCSK
# B2: OxDC (oxalate decarboxylase) (Bacillus subtilis subsp. subtilis str. 168; E280A) (protein)
# chain: B1 chain with Q101E, Q280A
# B3: recombinant, wild-type Bacillus subtilis oxalate decarboxylase (enzyme, UniProt O34714 1-385, looked up)
# chain: B1 chain with Q101E, Q280E
# B4: OxDC (oxalate decarboxylase) (Bacillus subtilis subsp. subtilis str. 168; E101D) (protein)
# chain: B1 chain with Q101D, Q280E
# B5: OxDC (oxalate decarboxylase) (Bacillus subtilis subsp. subtilis str. 168; E280D) (protein)
# chain: B1 chain with Q101E, Q280D
# B6: OxDC (oxalate decarboxylase) (Bacillus subtilis subsp. subtilis str. 168; E101A) (protein)
# chain: B1 chain with Q101A, Q280E
# B7: OxDC (oxalate decarboxylase) (Bacillus subtilis subsp. subtilis str. 168; E101Q) (protein)
# chain: B1 chain with Q280E
# B8: OxDC (oxalate decarboxylase) (Bacillus subtilis subsp. subtilis str. 168; E280Q) (protein)
# chain: B1 chain with Q101E
# Key:
# purified protein = substrate: O=C(O)C(=O)O; assay: purified protein; settings: buffer and temperature same
# SEC = biological target: the molecule itself; assay: SEC
protein,measurement,setting,value
B1,Km,purified protein; 0.07 Mn/monomer,2.9 ± 0.3 mM
same,kcat,purified protein; 0.07 Mn/monomer,0.012 ± 0.0003 s⁻¹
same,kcat/Km,purified protein; 0.07 Mn/monomer,4 M⁻¹ s⁻¹
B2,Km,purified protein; 0.67 Mn/monomer,3.0 ± 0.2 mM
same,kcat,purified protein; 0.67 Mn/monomer,0.019 ± 0.001 s⁻¹
same,kcat/Km,purified protein; 0.67 Mn/monomer,6 M⁻¹ s⁻¹
B3,stoichiometry N,SEC,6 and 12 monomers to 18 monomers (2×)
B4,Km,purified protein; 0.09 Mn/monomer,3.4 ± 0.1 mM
same,kcat,purified protein; 0.09 Mn/monomer,0.49 ± 0.01 s⁻¹
same,kcat/Km,purified protein; 0.09 Mn/monomer,144 M⁻¹ s⁻¹
B5,Km,purified protein; 0.64 Mn/monomer,5.4 ± 0.4 mM
same,kcat,purified protein; 0.64 Mn/monomer,0.14 ± 0.01 s⁻¹
same,kcat/Km,purified protein; 0.64 Mn/monomer,26 M⁻¹ s⁻¹
B6,Km,purified protein; 0.18 Mn/monomer,2.9 ± 0.3 mM
same,kcat,purified protein; 0.18 Mn/monomer,0.046 ± 0.002 s⁻¹
same,kcat/Km,purified protein; 0.18 Mn/monomer,16 M⁻¹ s⁻¹
B7,Km,purified protein; 0.11 Mn/monomer,4.0 ± 0.2 mM
same,kcat,purified protein; 0.11 Mn/monomer,0.62 ± 0.01 s⁻¹
same,kcat/Km,purified protein; 0.11 Mn/monomer,155 M⁻¹ s⁻¹
B8,Km,purified protein; 0.73 Mn/monomer,10.1 ± 0.6 mM
same,kcat,purified protein; 0.73 Mn/monomer,0.62 ± 0.01 s⁻¹
same,kcat/Km,purified protein; 0.73 Mn/monomer,61 M⁻¹ s⁻¹
